Usually EC50 stands for the concentration giving half of the maximal effect.

Positions count from the first letter of the chain named.

Experimental findings from patent publication US20230303690A1 (published 2023) are described below.

Assay [1] has as its target human LAG3 expressed on cells (human) (UniProt P18627). In words: cell ELISA, 293T-LAG3 cells.
Assay [2] concerns the target T1, LAG3 Protein, Human, Recombinant (His Tag) (Sino Biological Catalog No. 16498-H08H) (human, UniProt P18627 23-450).
T1 construct: Bought protein; also called hLAG3-His; LAG3-His; not shown: His tag
T1 sequence (looked up): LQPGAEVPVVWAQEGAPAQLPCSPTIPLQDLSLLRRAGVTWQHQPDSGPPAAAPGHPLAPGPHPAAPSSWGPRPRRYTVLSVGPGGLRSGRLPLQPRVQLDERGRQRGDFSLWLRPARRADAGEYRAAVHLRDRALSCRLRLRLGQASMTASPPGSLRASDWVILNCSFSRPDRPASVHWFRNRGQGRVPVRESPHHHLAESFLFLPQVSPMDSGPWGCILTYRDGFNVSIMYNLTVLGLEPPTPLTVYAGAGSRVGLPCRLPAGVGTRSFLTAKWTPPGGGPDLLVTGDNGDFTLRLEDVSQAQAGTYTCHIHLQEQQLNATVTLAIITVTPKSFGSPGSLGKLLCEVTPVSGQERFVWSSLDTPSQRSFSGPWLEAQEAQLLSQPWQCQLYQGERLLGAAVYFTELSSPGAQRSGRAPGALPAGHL
In words: ELISA, coated hLAG3-His. The method, then: Plates were coated with 100 µL per well of Coating Solution, and then covered, and incubated overnight (12-18 hours) at 2-8° C. The wells were aspirated and washed 1 time with >200 µL of Wash buffer per well, inverted and tapped on absorbent paper to remove excess liquid. The plates were blocked with 200 µL per well with Blocking buffer (1×PBS+4% milk) for 1 hour at room temperature, aspirated, inverted, and tapped on absorbent paper to remove excess liquid. Standards and sample dilutions were prepared in Blocking buffer. 100 µL of standards (in duplicate) and samples were pipetted into designated wells. After incubation for 1 hour at room temperature with gentle continual shaking (~500 rpm), the wells were aspirate and washed 3 times with >200 µL of Wash buffer per well, inverted and tapped on absorbent paper to remove excess liquid.
The primary antibody solution was diluted with Blocking buffer. See Table 14 for recommended primary antibody dilution. 100 µL of the primary antibody solution was added into each well and incubated for 2 hours at room temperature with gentle continual shaking (~500 rpm). The wells were aspirated and washed 3 times with >200 µL of Wash buffer per well, inverted and tapped on absorbent paper to remove excess liquid. The working solution of secondary antibody was made with Blocking buffer by diluting the secondary antibody by 2,500 times. 100 µL of secondary antibody working solution was added into each well and incubated for 30 minutes at room temperature. The wells were aspirated and washed 5 times with >200 µL of Wash buffer per well, inverted and tapped on absorbent paper to remove excess liquid. 100 µL of TMB substrate solution (Biopanda, TMB-S-004) was added to each well and incubated for 30 minutes at room temperature. 100 µL of Stop solution (Solarbio, C1058) was added to each well. Absorbance at 450 nm was measured within 30 minutes of adding Stop solution. Results were calculated using a log-log or 4-parameter curve fit.
A general note: ELISA stands for enzyme-linked immunosorbent assay.

B1: sdAb No. 25-B5 (VHH)
VHH: QVQLVESGGGLVKPGGSLRLSCAASGSIESFSFMGWYRQAPGKQREWVAGFTGAASLSFSTYTDAVKGRFTISRDNAKNSLYLQMNSLRAEDTAVYYCNVDPWSQSWPGRYWGQGTTVTVSS
notes: Humanized sdAb No. 25; not shown: Fc part implied by anti-human IgG1 Fc detection
In assay [1], B1 registered an OD450 at 0.122 nM of 0.086, an OD450 at 0.366 nM of 0.113, an OD450 at 1.097 nM of 0.124 and an OD450 at 3.292 nM of 0.196. Also, in assay [1], the OD450 at 9.877 nM was determined as 0.21, the OD450 at 29.63 nM is 0.254, the OD450 at 88.89 nM was 0.311 and the OD450 at 266.67 nM came out at 0.608. In assay [2], the concentration giving a half-maximal response (EC50) was 452 nM, the “OD450 at 0.061 nM” value amounted to 0.036, the “OD450 at 0.1829 nM” value came to 0.04 and the “OD450 at 0.5487 nM” value amounted to 0.038. Besides, in assay [2], the “OD450 at 1.6461 nM” value stood at 0.048, the “OD450 at 4.9383 nM” value was 0.062, the “OD450 at 14.815 nM” value worked out at 0.084 and the “OD450 at 44.445 nM” value was 0.114. Also, the “OD450 at 133.335 nM” value in assay [2] turned out to be 0.163.

B2: sdAb No. 25-B6 (VHH)
VHH: B1 VHH with V2L, L81V
notes: as for B1
For the molecule B2, in assay [1], the OD450 at 0.122 nM is 0.056, the OD450 at 0.366 nM came out at 0.07, the OD450 at 1.097 nM turned out to be 0.095 and the OD450 at 3.292 nM was determined as 0.166. In assay [1], this molecule gave an OD450 at 9.877 nM of 0.306, an OD450 at 29.63 nM of 0.399, an OD450 at 88.89 nM of 0.888 and an OD450 at 266.67 nM of 1.47. Also, in assay [2], the “OD450 at 0.061 nM” value was determined as 0.037, the “OD450 at 0.1829 nM” value was found to be 0.039, the “OD450 at 0.5487 nM” value was 0.037 and the “OD450 at 1.6461 nM” value is 0.044. In assay [2], the “OD450 at 4.9383 nM” value turned out to be 0.053, the “OD450 at 14.815 nM” value came to 0.069, the “OD450 at 44.445 nM” value stood at 0.085 and the “OD450 at 133.335 nM” value stood at 0.128.
